The experiment deals with T1, HCBD–GST (helical cargo-binding domain of mouse Myo6, residues 1052–1096) (Mus musculus (Mouse), UniProt Q64331).
T1 chain: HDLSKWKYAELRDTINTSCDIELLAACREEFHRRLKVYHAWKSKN
The experiment in a line: GST pulldown, Coomassie-stained gel.

2 molecules from PMC10234109 (2023) can be followed below.

B1: GIPC3 PDZ (93–181), MBP-tagged (protein)
chain: GETKEVEVTKTEDALGLTITDNGAGYAFIKRIKEGSIINRIEAVCVGDSIEAINDHSIVGCRHYEVAKMLRELPKSQPFTLRLVQPRRA
On to B1, for which the binding result is given as “no binding”.

B2: GIPC3 PDZ-GH2 domains (93–297), MBP-tagged (protein)
chain: GETKEVEVTKTEDALGLTITDNGAGYAFIKRIKEGSIINRIEAVCVGDSIEAINDHSIVGCRHYEVAKMLRELPKSQPFTLRLVQPRRAFDMIGQRSRSSKCPVEAKVSSGRETLRLRSGGAATVEEAPSDVEAAAARRVDDLLESYMGIRDPELAAAVVETARSSAGAQAFARGLDAVLGEFAFPDEFVVEVWAAIGEAHDACG
B2: the binding result is “binds”.
